Assay results taken from publication PMC5381215 (2017).

What was measured:
Experiment in all cases: SPR
HSA peptide 40 = HSA peptide 40 (human, UniProt P02768)
HSA peptide 4 = HSA peptide 4 (human, UniProt P02768)
HSA peptide 13 = HSA peptide 13 (human, UniProt P02768)

Kd (HSA peptide 40): 0.52 nM
Kd (HSA peptide 4): 57 nM
Kd (HSA peptide 13): 400 nM
B1: rituximab (antibody, V domains shown)
VH: QVQLQQPGAELVKPGASVKMSCKASGYTFTSYNMHWVKQTPGRGLEWIGAIYPGNGDTSYNQKFKGKATLTADKSSSTAYMQLSSLTSEDSAVYYCARSTYYGGDWYFNVWGAGTTVTVSA
VL: QIVLSQSPAILSASPGEKVTMTCRASSSVSYIHWFQQKPGSSPKPWIYATSNLASGVPVRFSGSGSGTSYSLTISRVEAEDAATYYCQQWTSNPPTFGGGTKLEIK
modifications: AlexaFluor 488 label (only in the ImageStream experiment, a3)
